The record followed here is paper PMC4919469.

One experiment addresses Cdc42Δ7Q61L (human) (UniProt P60953). In words: scintillation proximity assay; competition; free effector domain titrated into 30 nM Cdc42·[3H]GTP and 30 nM GST-ACK (in Fig. 7B GST-ACK or GST-WASP GBD) immobilised on a fluoromicrosphere; Kd from competition binding isotherms.
Experiment [1] has as its target full-length Cdc42Q61L (human) (UniProt P60953). Described as above.

Sequence of full-length Cdc42Q61L (human) (P60953 whole entry Q61L): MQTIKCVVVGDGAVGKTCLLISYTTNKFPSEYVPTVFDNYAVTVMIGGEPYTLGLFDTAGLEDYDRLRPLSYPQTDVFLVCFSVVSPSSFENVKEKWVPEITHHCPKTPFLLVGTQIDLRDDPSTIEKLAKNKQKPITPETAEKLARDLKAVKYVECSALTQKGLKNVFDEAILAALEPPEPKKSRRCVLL
Sequence of Cdc42Δ7Q61L (human) (P60953 1-184 Q61L): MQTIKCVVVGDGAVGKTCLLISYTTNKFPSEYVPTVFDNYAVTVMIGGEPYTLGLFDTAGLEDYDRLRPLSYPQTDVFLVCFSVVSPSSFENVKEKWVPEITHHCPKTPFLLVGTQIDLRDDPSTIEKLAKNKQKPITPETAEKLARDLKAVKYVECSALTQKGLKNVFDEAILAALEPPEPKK

Take free ACK GBD (domain or fragment): the Kd with Cdc42Δ7Q61L (human) came out at 0.032 µM; in experiment [1] it was 0.011 µM.
